Measurements: the nanobody polyreactivity screen of Harvey et al. (2022)

Assay: yeast display, Sf9 membrane polyspecificity reagent, FACS + sequencing; frameworks hold sequencing errors
How it was run: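 Synthetic nanobody libraries on Saccharomyces cerevisiae BJ5465 were galactose-induced for 36–48 hours, stained 1 hour at 4 °C with 10% biotinylated, detergent-solubilized Sf9 membrane reagent and enriched on streptavidin microbeads. FACS then separated cells into low and high (top ~1%) gates by anti-HA (expression) and streptavidin (reagent binding) fluorescence. Genes were colony-PCR amplified, MiSeq 2 × 250 sequenced and CDR-length filtered. A clone's polyreactivity label is that of its gate of origin.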

Sequence	polyreactivity (PSR sort gate)
QVQLVESGGGLVQAGGSLRLSCAASGSTFGAYAMGWSRKAPGKERELVAAISRRGGSTYYADSVKGRFTISRDNAKNTVYLQMNSLKPEDTAVYYCNAVGTRVDGEHYYWGQGTQVTVSS	high polyreactivity
QVQLVESGGGLVQAGGSLRLSCAASGITFGWYAMGWYRQAPGKERELVASISSSGSTNYADSVKGRFTISRDNAKNTVYLQMNSLKPEDTAVYYCNKDYLLRHYYIYVIEGDYWGQGTQVTVSS	low polyreactivity
QVQLVESGGGLVQAGGSLRLSCAASGRIFYAYAMGWYRQAPGKETELVAAITWRGGRTFYADSVKGRFTISRDNAKNTVYFQMNSLKPEDTAVYYCATRGAPYGMDYWGQGTQVTVSS	high polyreactivity
QVQLVESGGGLVQAGGSLRLSCAASGRNFARYVMGWYSQAPGKERELVASISNSGGSTYYADSVKGRFTISRDNAKNTVYLQMNSLKPEDTAVYYCARRYYYYTSYRYDYWGQGTQVTVSS	high polyreactivity
QVQLVESGGGLVQAGGSLRLSCAASGSIFVYYGMGWYRQAPGKEWELVAAMSSGGSSHYADSVKGRFTISRVTAKNSVYLQMNSLKPEDTAVYYCPADGFFWQRSYTRYYYWGQGSQVTVSS	low polyreactivity
QVQLVESGGGLVQAGGSLRLSCAASGIIFTTYVMGWYRHAPGTESELVAAISRGGRTYYADSVKGRFTLSRDNAKHTVYLQMNSLKPEDTAVYYCARVAYKGYGEDDYWGQGTQVTVSS	high polyreactivity
QVQLVESGGGLVQAGGSLRLSCAASGSTFSYYTMGWYRQAPGKERELVAAISKSGGITYYADSVKGRFTISRDNAKNTVYLQMNSLKPEDTAVYYCAADGGYYDDDYWGQGTQVTVSS	high polyreactivity
QVQLVESGGGLVQAGGSLRLSCAASGRTFPFYAMGWYRQAPGKERELVASISRSTGRTYYADSVKGRFTISRDNAKNTVYLQMNSLKPEDTAVYYCAKSGGSSQYWYGYWGQGTQVTVSS	high polyreactivity
QVQLVESGGGIVQAGGSLRLSCAASGRTSWYYAMGWYRQAPGKERELVAAITASGGSTYADSVKGRFTISRDNAKTSVYLQMNRLKPEDSAVYYCAAERPYSRVGYYYWGQGTQVTVSS	high polyreactivity
QVQLVESGGGLVQAGGSLRLSCAASGFNFDYYAMGWYRPAPGKVRELVAAITSRGGSTYYADSVKGRFTISRDNAKTTVYLQMNILKPEDTAVYYCSALRRSAEYNYWGQGTQVTVSS	high polyreactivity
QVQLVESCGGLVQAGGSLRLSCAASGSTFINYAMGWYRQAPGKERELVAAYAYSVKGRFTISRDNAKITVYLQMKSLKPEDTAVYYCNAVTGDWGQGTQVTVSS	low polyreactivity
QVQLVESGGGLVQAGGSLRLSCAASGFTFGYYAMGWYRQAPGKERELVAAISASGASTYYADSVKGRFTISRDNAKNTVYLQMNSLKPEDTAVYYCAARPGQLTSPVTRTRYNYWGQGTQVTVSS	low polyreactivity
QVQLVESGGGLVQAGGSLRLSCAASGSTFGRNAMGWYRQAPGKERELVASISWGGGSTYYADSVKVRFTISRDNAKNNVYLQMNSLKPEDTAVYYCAAGLAYWYWRGYDYWGQGTQVTVSS	high polyreactivity
QVQLVESGGGLVQAGGSLRLSCAASGSTFVGYTMGWYRQAPGKERELVASITSDGSTNYADSVKGRFTISRDNAKNTVYLQMNSLKREDTAVYYCNADWSSLYVGEFDYWGQGTQVTVSS	low polyreactivity
QVQLVESAGGLVQAGGSLRLSCAASGSTFRLNTMGWYRQEPGNERELVAGISYSGGSTYYADSVNGRFTISRDNAKNTVYLQMNSLKPEDTAVYYCNKRAWFSSKDDYWGQGTQVTVSS	high polyreactivity
QVQLVESGGGLVQAGGSLRLSCAASGIIFSAYAMGCYRQAPGKESELVAAISSTGGSTYYADSVKGRFTISRDNAKNTVYLQMNSLKPEDTADYYCATAFTPSKLSRMGYWGQGTQVTVSS	high polyreactivity
QVQLVESGGGLVQAGGSLRLSCAASGSIFFSNAMGWYRQAPGKERELVAGIRSGGITNYADSVKGRFTISRDNAKNTVYLQMNSLKPEDSAVYYCAKLKDHGRYAYAFDYWGQGTQVTVSS	low polyreactivity
QVQLVESGGGLVQAGGSLRLSCAASGIIFDTYVMGWYRQAPGKERELVAAITRSGGRTRYADSVKGRFTISRDNAKNTVYLQMNSLKPEDTAVYYCAARIPDRQDGYGYWGQGTQVTVSS	high polyreactivity
QVQLVESGGGLVQAGGSLRLSCAASGSTFNWNAMRWYRQPPGKERELVAAITSSGARTRYADSVKGRFTISRDNAKNTVYLQMNSLKPEDTAVYYCAAYVYISPSGYYYWGLGTQVTVSS	low polyreactivity
QVQLQESGGGLVQAGGSMRLSCAASGYNTIEVTRAGFSRRRAKNANLLPLLITVVLPIKRIAQNTISRDNAKNTVYLQMNSLKPEDTAVYNCAANTIGTDLYEYWGQGTQATVSS	low polyreactivity
QVQLVESGGGLVQAGGSLRLSCAASGSTFGPNTMGWYRQAPGKERELVAAITTRGGRTYYADSVKGRFTISRDNAKNTVYLQMNSLKPEDTAVYYCAASAPYYGRGGLVGYWGQGTQVTVSS	high polyreactivity
QVQLVESGGGLVQAGGSLRLSCAASGSTFWYNAMGWYRQAPGKERELVAAISASGGSTYYADSVKGRFTISRDNAKNTVYLQMNSLKPEDTAVYYCAAGSFWGYSRYRTYYGFDYWGQGTQVTVSS	high polyreactivity
